US20230321192A1 (published 2023)
Where a chain is given by its changes, count along the chain named.

B1: hA8 (ligand)
chain: YFGKLESRLSVIRNLNDQVLFIDQGNRPLFEDMTDSDCRDNAPRTIFIISKYKDKQPRAQAVTISVKCEKISTLSCENKIISFKEMNPPDNIKDTKSDIIFFQRDVPGHKHKMQFESSSYEGYFLACEKERDLFKLILKKEDELGDRSIMFTIQNED
notes: Human DR-IL-18 variant; display fusion not written
B2: hCS2 (ligand)
chain: B1 chain with R8K, K51T, Q60K
notes: Human DR-IL-18 consensus variant; E. coli recombinant with C-terminal hexahistidine tag in SPR; fusion and tag not written
B3: Human IL-18BP (amino acids 31-194) (receptor)
chain: TPVSQTTTAATASVRSTKDPCPSQPPVFPAAKQCPALEVTWPEVEVPLNGTLSLSCVACSRFPNFSILYWLGNGSFIEHLPGRLWEGSTSRERGSTGTQLCKALVLEQLTPALHSTNFSCVLVDPEQVVQRHVVLAQLWAGLRATLPPTQEALPSSHSSPQQQGGLNDIFEAQKIEWHEHHHHHH
modifications: biotin on the AviTag (BirA ligase) where used biotinylated
B4: mA7 (ligand)
chain: YFGRLHCTTAVIRNINDQVLFVDKRQPVFEDMTDIDQSASEPQTRLIIYAYGDNRVRGKAVTLSVKDSKMSTLSCKNKIISFEEMDPPENIDDIQSDLIFFQKRVPGHNKMEFESSLYEGHFLACQKEDDAFKLILKKKDENGDKSVMFTLTNLHQS
notes: Murine DR-IL-18 variant; recombinant with C-terminal hexahistidine tag in SPR; fusion and tag not written
B5: mCS2 (ligand)
chain: B4 chain with Y1H, N54S, V56A
notes: Murine DR-IL-18 consensus variant; recombinant with C-terminal hexahistidine tag in SPR; fusion and tag not written
B6: mE8 (ligand)
chain: B4 chain with Y1N, A50V, G52T, N54G, V56R, R104K, N109D
notes: as for B4
B7: mC1 (ligand)
chain: B4 chain with Y1N, G52V, N54R, V56L, R104K
notes: as for B4

How the values were obtained:
[1] = molecular target: B3; experiment: on-yeast binding isotherm, flow cytometry
[2] = molecular target: T1, Human Interleukin-18 (mature form), wild-type (human, UniProt Q14116 37-193); experiment: cell-based or functional assay
T1 sequence: B1 chain with R8K, K51M, K55S, A59G, Q60M, D105S, K110D, H111N, I153V

[3] = molecular target: T2, Mouse IL-18BP (amino acids 31-194) (mouse, UniProt Q9Z0M9 29-193, biotin on the AviTag (BirA ligase)); experiment: SPR; end of the range tied to mA7 by Table 9
T2 construct: Secreted from Expi293 cells (H7 signal peptide); also called mIL-18BP
T2 sequence: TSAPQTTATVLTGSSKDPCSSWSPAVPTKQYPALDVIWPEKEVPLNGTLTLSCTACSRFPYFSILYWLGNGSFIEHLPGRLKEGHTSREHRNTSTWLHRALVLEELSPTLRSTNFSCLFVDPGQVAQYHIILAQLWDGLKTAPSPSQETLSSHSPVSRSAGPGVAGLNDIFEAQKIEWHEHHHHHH

[4] = molecular target: T2, Mouse IL-18BP (amino acids 31-194); experiment: SPR
Protocol: Experiments were conducted using a Biacore T100 and carried out at 25° C. Biotinylated IL-18Rα or IL-18BP were immobilized onto a Biacore biotin capture chip (Series S CAP sensor chip, GE Healthcare) to yield an Rmax of ~50 RU (IL-18Rα) or ~10 RU (IL-18BP). Measurements were made with serial dilutions of the IL-18 variants in HEPES buffered Saline-P+ buffer (10 mM HEPES pH 7.4, 150 mM NaCl, 0.005% surfactant P20). The surface was regenerated by three 60-sec injections of regeneration buffer (¾ (v/v) 8 M guanidine hydrochloride with ¼ (v/v) 1 M sodium hydroxide). Experiments were performed in multiple channels simultaneously for increased observations. All data were analyzed with the Biacore T100 evaluation software version 2.0 with a 1:1 Langmuir binding model.
As the human and mouse interspecies cross-reactivity of IL-18 for IL-18Rα is poor, murine equivalents of the DR-IL-18 variants that could be used for studies in mice were created. Similar to the approach taken for hIL-18 above, a combinatorial library of mIL-18 variants randomizing a similar set of mIL-18Rα/mIL-18BP contact residues (Table 3) was created, yielding a library of 4 × 10⁸ transformants. Directed evolution was performed on this library similar to how it was performed with the human IL-18 library; the selection strategy is summarized in FIG. 10A.

[5] = molecular target: T2, Mouse IL-18BP (amino acids 31-194); experiment: SPR; KD ratio normalized to WT IL-18; lower end taken as mE8 (lowest ratio in Table 9)
[6] = molecular target: T3, Mouse IL-18Rα ectodomain (amino acids 19-329) (mouse, UniProt Q61098 19-329, biotin on the AviTag (BirA ligase)); experiment: SPR; end of the range tied to mE8 by Table 9
T3 construct: range 19-329; Secreted from Expi293 cells (H7 signal peptide); also called mIL-18Rα; Ra
T3 sequence: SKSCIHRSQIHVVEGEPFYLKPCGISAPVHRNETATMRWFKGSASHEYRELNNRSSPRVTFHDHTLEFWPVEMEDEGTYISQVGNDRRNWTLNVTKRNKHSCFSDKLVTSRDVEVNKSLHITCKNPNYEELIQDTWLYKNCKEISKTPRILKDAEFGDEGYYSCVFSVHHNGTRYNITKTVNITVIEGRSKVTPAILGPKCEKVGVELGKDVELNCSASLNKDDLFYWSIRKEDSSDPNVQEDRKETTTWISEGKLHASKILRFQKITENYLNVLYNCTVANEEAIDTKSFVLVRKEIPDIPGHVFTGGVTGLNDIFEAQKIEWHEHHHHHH

[7] = molecular target: T2, Mouse IL-18BP (amino acids 31-194); experiment: SPR; end of the range tied to mC1 by Table 9

With B1 the EC50 [1] was > 1 µM.

B2 was tested, and the EC50 [1] was > 1 µM.

For B3, the “IC50 of recombinant IL-18BP on the IL-18 HEK-Blue reporter signal (hIL-18 fixed at 5 nM)” value [2] was 0.003 µM.

Work on B4 yielded a Kd [3] of 14 µM.

In the case of B5, the Kd [4] is reported as 11 µM.

With B6 the “IL-18 BP:Ra Dissociation Constant Ratio” value [5] was 9.3e+06 and the Kd [6] was 0.0017 µM.

In the case of B7, the Kd [7] is reported as 29 µM.
